Reference: US20240109955A1

How the values were obtained:
Assay in all cases: cell-based or functional assay
[1] = biological target: SARS-CoV-2 spike (S) protein, Omicron variant BA.1 (SARS-CoV-2) (UniProt P0DTC2)
[2] = biological target: SARS-CoV-2 spike (S) protein, Omicron variant BA.2.12.1 (SARS-CoV-2) (UniProt P0DTC2)
[3] = biological target: SARS-CoV-2 spike (S) protein, Omicron variant BA.2 (SARS-CoV-2) (UniProt P0DTC2)
[4] = biological target: SARS-CoV-2 spike (S) protein of Omicron sublineage BJ.1 (R346T, V445P, G446S) (SARS-CoV-2) (UniProt P0DTC2)
[5] = biological target: SARS-CoV-2 Omicron BA.4.6 spike protein (R346T, F486V) (SARS-CoV-2) (UniProt P0DTC2)
[6] = biological target: SARS-CoV-2 spike (S) protein of Omicron sublineage BA.2.75 (G446S) (SARS-CoV-2) (UniProt P0DTC2)
[7] = biological target: SARS-CoV-2 spike (S) protein of Omicron sublineage BQ.1.1 (R346T, K444T, F486V) (SARS-CoV-2) (UniProt P0DTC2)
[8] = biological target: SARS-CoV-2 spike protein, Alpha variant (B.1.1.7) (SARS-CoV-2)
[9] = biological target: SARS-CoV-2 spike protein, C.1.2 variant (SARS-CoV-2)
[10] = biological target: SARS-CoV-2 spike protein, Delta variant (B.1.617.2) (SARS-CoV-2)
[11] = biological target: SARS-CoV-2 spike protein, Gamma variant (P.1) (SARS-CoV-2)
[12] = biological target: SARS-CoV-2 spike protein, Mu variant (B.1.621) (SARS-CoV-2)
[13] = biological target: SARS-CoV-2 spike protein, Beta variant 1 (B.1.351 v1) (SARS-CoV-2)

Chain of MX413 (A19-61 × A23-58H/B1-182L) (bispecific antibody) (chain): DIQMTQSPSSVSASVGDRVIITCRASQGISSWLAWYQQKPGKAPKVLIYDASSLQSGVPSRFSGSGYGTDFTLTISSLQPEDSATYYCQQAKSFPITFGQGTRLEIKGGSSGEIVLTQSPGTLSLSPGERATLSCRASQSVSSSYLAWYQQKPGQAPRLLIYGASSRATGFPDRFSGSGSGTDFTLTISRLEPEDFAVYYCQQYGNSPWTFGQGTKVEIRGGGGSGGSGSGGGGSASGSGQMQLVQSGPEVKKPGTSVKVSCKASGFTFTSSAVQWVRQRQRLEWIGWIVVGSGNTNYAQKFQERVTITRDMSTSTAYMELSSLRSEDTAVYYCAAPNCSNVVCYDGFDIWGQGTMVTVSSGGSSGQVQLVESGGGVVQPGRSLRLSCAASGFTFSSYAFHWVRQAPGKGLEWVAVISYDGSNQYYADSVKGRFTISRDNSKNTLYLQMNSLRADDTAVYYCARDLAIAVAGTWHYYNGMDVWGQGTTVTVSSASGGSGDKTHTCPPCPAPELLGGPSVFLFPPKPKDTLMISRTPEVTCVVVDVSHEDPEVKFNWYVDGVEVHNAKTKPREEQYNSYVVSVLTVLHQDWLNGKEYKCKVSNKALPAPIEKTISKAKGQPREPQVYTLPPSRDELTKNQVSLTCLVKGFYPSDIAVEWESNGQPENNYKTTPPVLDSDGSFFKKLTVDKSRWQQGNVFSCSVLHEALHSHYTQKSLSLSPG
Chain of MX 490 (A23-58H/B1-182L × A19-46) (bispecific antibody) (chain): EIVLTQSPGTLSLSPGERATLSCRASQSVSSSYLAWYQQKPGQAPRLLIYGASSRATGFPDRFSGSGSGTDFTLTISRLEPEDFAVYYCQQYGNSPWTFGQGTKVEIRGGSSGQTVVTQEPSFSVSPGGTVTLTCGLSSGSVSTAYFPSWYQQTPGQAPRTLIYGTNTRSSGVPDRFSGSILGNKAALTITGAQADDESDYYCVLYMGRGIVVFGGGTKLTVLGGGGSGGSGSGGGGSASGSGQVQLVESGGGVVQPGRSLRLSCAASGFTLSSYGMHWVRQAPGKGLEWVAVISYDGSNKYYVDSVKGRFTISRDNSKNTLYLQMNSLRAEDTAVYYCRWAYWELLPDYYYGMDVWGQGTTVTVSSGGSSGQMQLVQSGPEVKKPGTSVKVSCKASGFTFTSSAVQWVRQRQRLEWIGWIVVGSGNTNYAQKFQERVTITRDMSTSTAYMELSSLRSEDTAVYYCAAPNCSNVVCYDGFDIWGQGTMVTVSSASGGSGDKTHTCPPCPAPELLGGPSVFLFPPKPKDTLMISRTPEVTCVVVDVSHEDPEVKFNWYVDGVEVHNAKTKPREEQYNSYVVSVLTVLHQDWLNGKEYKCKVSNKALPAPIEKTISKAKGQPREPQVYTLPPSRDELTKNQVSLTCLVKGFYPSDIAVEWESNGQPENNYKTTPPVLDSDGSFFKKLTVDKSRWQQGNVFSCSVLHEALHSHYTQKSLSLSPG
Chain of MX179 (A19-46 × B1-182) (bispecific antibody) (chain): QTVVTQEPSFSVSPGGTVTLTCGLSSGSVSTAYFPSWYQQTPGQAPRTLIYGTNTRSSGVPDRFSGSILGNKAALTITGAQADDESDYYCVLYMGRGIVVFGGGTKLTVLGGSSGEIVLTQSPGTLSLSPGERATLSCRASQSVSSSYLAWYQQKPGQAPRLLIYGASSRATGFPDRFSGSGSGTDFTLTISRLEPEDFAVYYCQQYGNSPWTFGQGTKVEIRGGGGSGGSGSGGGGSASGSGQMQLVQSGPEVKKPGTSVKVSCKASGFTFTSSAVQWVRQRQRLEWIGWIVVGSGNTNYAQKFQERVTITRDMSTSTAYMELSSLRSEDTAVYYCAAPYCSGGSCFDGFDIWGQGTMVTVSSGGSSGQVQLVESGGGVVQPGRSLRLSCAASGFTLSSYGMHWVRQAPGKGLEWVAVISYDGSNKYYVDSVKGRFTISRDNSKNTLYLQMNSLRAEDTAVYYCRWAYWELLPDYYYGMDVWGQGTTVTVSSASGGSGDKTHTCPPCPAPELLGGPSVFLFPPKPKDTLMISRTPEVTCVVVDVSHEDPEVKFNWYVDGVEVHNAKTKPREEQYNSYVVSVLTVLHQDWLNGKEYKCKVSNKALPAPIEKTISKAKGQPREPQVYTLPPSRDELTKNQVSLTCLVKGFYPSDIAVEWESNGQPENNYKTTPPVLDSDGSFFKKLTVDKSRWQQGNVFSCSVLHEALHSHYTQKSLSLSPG
Chain of MX412 (A23-58H/B1-182L × A19-61) (bispecific antibody) (chain): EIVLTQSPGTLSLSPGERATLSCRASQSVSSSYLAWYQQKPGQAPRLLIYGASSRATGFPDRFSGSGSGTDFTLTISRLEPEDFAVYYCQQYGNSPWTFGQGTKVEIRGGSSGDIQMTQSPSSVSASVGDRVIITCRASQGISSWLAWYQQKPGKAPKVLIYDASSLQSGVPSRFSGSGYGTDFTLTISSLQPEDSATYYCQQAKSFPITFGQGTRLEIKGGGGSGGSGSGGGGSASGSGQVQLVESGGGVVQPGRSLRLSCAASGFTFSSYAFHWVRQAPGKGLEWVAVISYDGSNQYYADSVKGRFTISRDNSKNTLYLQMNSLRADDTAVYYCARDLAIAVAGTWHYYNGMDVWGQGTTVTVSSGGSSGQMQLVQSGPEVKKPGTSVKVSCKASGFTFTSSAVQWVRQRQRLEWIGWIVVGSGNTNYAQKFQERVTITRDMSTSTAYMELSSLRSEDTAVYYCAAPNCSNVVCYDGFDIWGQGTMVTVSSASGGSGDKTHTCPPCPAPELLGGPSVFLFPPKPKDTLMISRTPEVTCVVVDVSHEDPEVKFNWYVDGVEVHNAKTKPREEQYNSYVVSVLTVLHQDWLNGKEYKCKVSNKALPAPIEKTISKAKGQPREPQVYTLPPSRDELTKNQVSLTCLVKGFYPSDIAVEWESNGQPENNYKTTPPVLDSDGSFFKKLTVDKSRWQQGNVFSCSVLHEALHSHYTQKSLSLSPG
Chain of MX492 (A19-46 × A23-58H/B1-182L) (bispecific antibody) (chain): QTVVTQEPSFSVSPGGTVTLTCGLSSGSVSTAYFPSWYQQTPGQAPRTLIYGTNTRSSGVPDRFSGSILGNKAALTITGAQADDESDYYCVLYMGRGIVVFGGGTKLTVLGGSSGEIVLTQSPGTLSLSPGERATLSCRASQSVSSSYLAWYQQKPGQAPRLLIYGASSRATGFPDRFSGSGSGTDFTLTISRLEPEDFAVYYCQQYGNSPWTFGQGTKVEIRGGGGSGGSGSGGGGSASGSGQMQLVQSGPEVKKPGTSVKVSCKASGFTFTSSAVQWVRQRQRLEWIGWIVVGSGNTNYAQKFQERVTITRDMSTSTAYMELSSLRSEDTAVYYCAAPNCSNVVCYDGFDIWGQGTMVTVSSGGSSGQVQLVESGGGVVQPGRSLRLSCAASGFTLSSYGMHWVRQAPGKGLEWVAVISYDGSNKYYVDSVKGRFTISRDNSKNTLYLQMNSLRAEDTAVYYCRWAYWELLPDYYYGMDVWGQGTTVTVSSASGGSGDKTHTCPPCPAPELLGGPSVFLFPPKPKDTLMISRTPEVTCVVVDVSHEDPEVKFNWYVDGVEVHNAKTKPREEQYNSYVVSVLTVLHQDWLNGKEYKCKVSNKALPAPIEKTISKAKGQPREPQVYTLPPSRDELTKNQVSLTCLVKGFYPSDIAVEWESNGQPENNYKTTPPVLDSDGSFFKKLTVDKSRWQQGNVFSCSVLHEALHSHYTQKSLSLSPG
Chain of MX180 (B1-182 × A19-46) (bispecific antibody) (chain): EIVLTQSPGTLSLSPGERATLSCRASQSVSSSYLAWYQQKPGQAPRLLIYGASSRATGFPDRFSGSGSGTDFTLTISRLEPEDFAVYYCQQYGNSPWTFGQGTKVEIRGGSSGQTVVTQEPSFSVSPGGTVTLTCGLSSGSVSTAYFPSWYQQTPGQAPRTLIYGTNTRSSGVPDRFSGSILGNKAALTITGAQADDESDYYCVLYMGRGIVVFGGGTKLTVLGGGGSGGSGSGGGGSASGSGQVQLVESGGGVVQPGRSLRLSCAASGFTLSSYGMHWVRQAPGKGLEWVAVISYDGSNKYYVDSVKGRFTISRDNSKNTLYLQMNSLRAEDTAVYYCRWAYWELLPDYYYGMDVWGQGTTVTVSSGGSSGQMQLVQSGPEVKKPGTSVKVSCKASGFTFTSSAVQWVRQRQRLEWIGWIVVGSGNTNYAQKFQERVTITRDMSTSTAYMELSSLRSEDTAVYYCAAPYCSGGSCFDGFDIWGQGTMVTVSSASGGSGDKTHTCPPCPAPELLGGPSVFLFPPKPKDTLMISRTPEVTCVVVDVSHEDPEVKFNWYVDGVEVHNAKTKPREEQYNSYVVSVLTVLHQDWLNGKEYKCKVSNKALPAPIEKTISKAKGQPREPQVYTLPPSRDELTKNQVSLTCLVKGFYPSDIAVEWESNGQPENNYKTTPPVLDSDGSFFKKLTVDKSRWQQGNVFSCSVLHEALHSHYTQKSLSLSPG

MX492 (A19-46 × A23-58H/B1-182L) (bispecific antibody)
IC50, pseudovirus neutralization [1]: 0.0058 nM | IC80, pseudovirus neutralization [1]: 0.0369 nM | IC50, pseudovirus neutralization [2]: 0.107 nM | IC80, pseudovirus neutralization [2]: 0.93 nM | IC50, pseudovirus neutralization [3]: 0.0201 nM | IC80, pseudovirus neutralization [3]: 0.0451 nM

A23-58H/B1-182L hybrid antibody
IC50, pseudovirus neutralization [4]: 20 nM | IC80, pseudovirus neutralization [4]: 102 nM | IC50, pseudovirus neutralization [5]: > 10000 nM | IC80, pseudovirus neutralization [5]: > 10000 nM | IC50, pseudovirus neutralization [6]: 5 nM | IC80, pseudovirus neutralization [6]: 35 nM | IC50, pseudovirus neutralization [7]: > 10000 nM | IC80, pseudovirus neutralization [7]: > 10000 nM

A23-58 mAb (antibody)
IC50, pseudovirus neutralization [1]: 0.853 nM | IC80, pseudovirus neutralization [1]: 4.24 nM | IC50, pseudovirus neutralization [8]: 0.0329 nM | IC80, pseudovirus neutralization [8]: 0.104 nM | IC50, pseudovirus neutralization [9]: 0.0287 nM | IC80, pseudovirus neutralization [9]: 0.0656 nM | IC50, pseudovirus neutralization [10]: 0.0133 nM | IC80, pseudovirus neutralization [10]: 0.0358 nM | IC50, pseudovirus neutralization [11]: 0.0097 nM | IC80, pseudovirus neutralization [11]: 0.0437 nM | IC50, pseudovirus neutralization [2]: 0.647 nM | IC80, pseudovirus neutralization [2]: 4.96 nM | IC50, pseudovirus neutralization [12]: 0.124 nM | IC80, pseudovirus neutralization [12]: 0.26 nM | IC50, pseudovirus neutralization [13]: 0.123 nM | IC80, pseudovirus neutralization [13]: 0.339 nM | IC50, pseudovirus neutralization [3]: 1.68 nM | IC80, pseudovirus neutralization [3]: 5.69 nM

MX179 (A19-46 × B1-182) (bispecific antibody)
IC50, pseudovirus neutralization [1]: 0.0068 nM | IC80, pseudovirus neutralization [1]: 0.0193 nM | IC50, pseudovirus neutralization [2]: 0.167 nM | IC80, pseudovirus neutralization [2]: 0.929 nM | IC50, pseudovirus neutralization [3]: 0.0137 nM | IC80, pseudovirus neutralization [3]: 0.0389 nM

MX413 (A19-61 × A23-58H/B1-182L) (bispecific antibody)
IC50, pseudovirus neutralization [1]: 6.58 nM | IC80, pseudovirus neutralization [1]: 20.5 nM | IC50, pseudovirus neutralization [8]: 0.0547 nM | IC80, pseudovirus neutralization [8]: 0.141 nM | IC50, pseudovirus neutralization [9]: 0.0109 nM | IC80, pseudovirus neutralization [9]: 0.026 nM | IC50, pseudovirus neutralization [10]: 0.0193 nM | IC80, pseudovirus neutralization [10]: 0.0655 nM | IC50, pseudovirus neutralization [11]: 0.025 nM | IC80, pseudovirus neutralization [11]: 0.0547 nM | IC50, pseudovirus neutralization [2]: 0.0149 nM | IC80, pseudovirus neutralization [2]: 0.0614 nM | IC50, pseudovirus neutralization [12]: 0.089 nM | IC80, pseudovirus neutralization [12]: 0.166 nM | IC50, pseudovirus neutralization [13]: 0.0386 nM | IC80, pseudovirus neutralization [13]: 0.092 nM | IC50, pseudovirus neutralization [3]: 0.0141 nM | IC80, pseudovirus neutralization [3]: 0.0466 nM

MX413 (A19-61 x A23-58H/B1-182L) bispecific, tetravalent molecule with Fc (bispecific antibody)
IC50, pseudovirus neutralization [4]: 3210 nM | IC80, pseudovirus neutralization [4]: > 10000 nM | IC50, pseudovirus neutralization [6]: 21 nM | IC80, pseudovirus neutralization [6]: 71 nM | IC50, pseudovirus neutralization [7]: > 10000 nM | IC80, pseudovirus neutralization [7]: > 10000 nM

MX 490 (A23-58H/B1-182L × A19-46) (bispecific antibody)
IC50, pseudovirus neutralization [1]: 0.22 nM | IC80, pseudovirus neutralization [1]: 0.484 nM | IC50, pseudovirus neutralization [2]: > 6.7 nM | IC80, pseudovirus neutralization [2]: > 6.7 nM | IC50, pseudovirus neutralization [3]: 0.392 nM | IC80, pseudovirus neutralization [3]: 0.896 nM

MX412 (A23-58H/B1-182L × A19-61) (bispecific antibody)
IC50, pseudovirus neutralization [1]: 8.96 nM | IC80, pseudovirus neutralization [1]: 31.8 nM | IC50, pseudovirus neutralization [8]: 0.058 nM | IC80, pseudovirus neutralization [8]: 0.143 nM | IC50, pseudovirus neutralization [9]: 0.014 nM | IC80, pseudovirus neutralization [9]: 0.0528 nM | IC50, pseudovirus neutralization [10]: 0.0279 nM | IC80, pseudovirus neutralization [10]: 0.0625 nM | IC50, pseudovirus neutralization [11]: 0.042 nM | IC80, pseudovirus neutralization [11]: 0.0885 nM | IC50, pseudovirus neutralization [2]: 0.0615 nM | IC80, pseudovirus neutralization [2]: 0.178 nM | IC50, pseudovirus neutralization [12]: 0.583 nM | IC80, pseudovirus neutralization [12]: 1.78 nM | IC50, pseudovirus neutralization [13]: 0.0365 nM | IC80, pseudovirus neutralization [13]: 0.084 nM | IC50, pseudovirus neutralization [3]: 0.0304 nM | IC80, pseudovirus neutralization [3]: 0.0803 nM

A19-61.1 antibody
IC50, pseudovirus neutralization [4]: > 10000 nM | IC80, pseudovirus neutralization [4]: > 10000 nM | IC50, pseudovirus neutralization [6]: > 10000 nM | IC80, pseudovirus neutralization [6]: > 10000 nM | IC50, pseudovirus neutralization [7]: > 10000 nM | IC80, pseudovirus neutralization [7]: > 10000 nM

MX180 (B1-182 × A19-46) (bispecific antibody)
IC50, pseudovirus neutralization [1]: 0.0187 nM | IC80, pseudovirus neutralization [1]: 0.0652 nM | IC50, pseudovirus neutralization [2]: 0.584 nM | IC80, pseudovirus neutralization [2]: 2.82 nM | IC50, pseudovirus neutralization [3]: 0.041 nM | IC80, pseudovirus neutralization [3]: 0.103 nM

A19-46.1 antibody
IC50, pseudovirus neutralization [4]: > 10000 nM | IC80, pseudovirus neutralization [4]: > 10000 nM | IC50, pseudovirus neutralization [6]: 148 nM | IC80, pseudovirus neutralization [6]: 352 nM | IC50, pseudovirus neutralization [7]: > 10000 nM | IC80, pseudovirus neutralization [7]: > 10000 nM
